Measurements taken from publication PMC9082959, “Mechanism of Assembly of the Non-Covalent Spectrin Tetramerization Domain from Intrinsically Disordered Partners” (Journal of molecular biology, 2013).

Legend:
Experiment in all cases: ITC; β16β17 at 25–50 μM in the cell titrated with 15–20 injections to 2–2.5 eq of α0α1; one-site binding model; PBS (50 mM sodium phosphate, 150 mM NaCl, pH 7.04), 25 °C; mutants only against the wild-type partner
Settings in all cases: both partners purified
[1] = target: T1, β16β17 (erythrocyte β-spectrin residues 1898–2083), wild type (human, UniProt P11277 1898-2083)
T1 construct: erythrocyte β-spectrin, human, residues 1898-2083 (β16 plus the incomplete 17th domain); synthetic gene (GenScript) in a modified pRSETA plasmid; source: E. coli C41(DE3), purified (Ni2+ agarose, thrombin cleavage, gel filtration)
T1 sequence (looked up): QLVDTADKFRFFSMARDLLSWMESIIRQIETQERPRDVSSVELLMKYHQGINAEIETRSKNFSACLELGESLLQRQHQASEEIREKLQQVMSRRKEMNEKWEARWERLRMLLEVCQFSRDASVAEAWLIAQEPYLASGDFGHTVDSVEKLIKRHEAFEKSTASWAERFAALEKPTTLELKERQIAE

β16β17 Y28A = target: T2, β16β17 Y28A (human, UniProt P11277 1898-2083, Y2031A)
T2 construct: erythrocyte β-spectrin, human, residues 1898-2083 (β16β17); mutant of m2; also called Y2031A; source: E. coli C41(DE3), purified (Ni2+ agarose, thrombin cleavage, gel filtration)
T2 sequence (looked up): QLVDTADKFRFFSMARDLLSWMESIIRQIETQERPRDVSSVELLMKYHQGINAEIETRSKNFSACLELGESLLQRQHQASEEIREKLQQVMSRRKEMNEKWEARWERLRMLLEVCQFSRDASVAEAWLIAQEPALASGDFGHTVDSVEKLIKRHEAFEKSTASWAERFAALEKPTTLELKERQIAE

β16β17 E19A = target: T3, β16β17 E19A (human, UniProt P11277 1898-2083, E2022A)
T3 construct: erythrocyte β-spectrin, human, residues 1898-2083 (β16β17); mutant of m2; also called E2022A; source: E. coli C41(DE3), purified (Ni2+ agarose, thrombin cleavage, gel filtration)
T3 sequence (looked up): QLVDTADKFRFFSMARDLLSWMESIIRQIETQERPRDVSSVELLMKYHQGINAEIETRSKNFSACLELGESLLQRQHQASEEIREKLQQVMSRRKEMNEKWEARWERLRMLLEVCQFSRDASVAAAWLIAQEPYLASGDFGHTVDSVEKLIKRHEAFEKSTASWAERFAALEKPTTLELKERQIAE

β16β17 F51L = β16β17 F51L (human, UniProt P11277 1898-2083, F51L (domain identifier), printed F2054G as protein identifier, The table's protein identifier F2054G is taken as a typo: the domain identifier is F51L (offset 2003), and the text says aromatic residues were mutated to Ala or Leu)
β16β17 F11L = target: T4, β16β17 F11L (human, UniProt P11277 1898-2083, F2014L)
T4 construct: erythrocyte β-spectrin, human, residues 1898-2083 (β16β17); mutant of m2; also called F2014L; source: E. coli C41(DE3), purified (Ni2+ agarose, thrombin cleavage, gel filtration)
T4 sequence (looked up): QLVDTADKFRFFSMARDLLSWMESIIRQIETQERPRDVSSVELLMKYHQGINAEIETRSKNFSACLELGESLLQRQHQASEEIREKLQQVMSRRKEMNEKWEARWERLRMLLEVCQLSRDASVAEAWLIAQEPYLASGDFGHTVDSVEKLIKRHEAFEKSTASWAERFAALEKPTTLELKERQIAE

β16β17 L29A = target: T5, β16β17 L29A (human, UniProt P11277 1898-2083, L2032A)
T5 construct: erythrocyte β-spectrin, human, residues 1898-2083 (β16β17); mutant of m2; also called L2032A; source: E. coli C41(DE3), purified (Ni2+ agarose, thrombin cleavage, gel filtration)
T5 sequence (looked up): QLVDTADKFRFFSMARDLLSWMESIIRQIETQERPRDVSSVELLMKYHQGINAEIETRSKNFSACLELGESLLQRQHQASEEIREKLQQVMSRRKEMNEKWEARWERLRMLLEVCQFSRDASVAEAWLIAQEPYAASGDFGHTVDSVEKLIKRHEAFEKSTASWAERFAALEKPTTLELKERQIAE

β16β17 F62L = target: T6, β16β17 F62L (human, UniProt P11277 1898-2083, F2065L)
T6 construct: erythrocyte β-spectrin, human, residues 1898-2083 (β16β17); mutant of m2; also called F2065L; source: E. coli C41(DE3), purified (Ni2+ agarose, thrombin cleavage, gel filtration)
T6 sequence (looked up): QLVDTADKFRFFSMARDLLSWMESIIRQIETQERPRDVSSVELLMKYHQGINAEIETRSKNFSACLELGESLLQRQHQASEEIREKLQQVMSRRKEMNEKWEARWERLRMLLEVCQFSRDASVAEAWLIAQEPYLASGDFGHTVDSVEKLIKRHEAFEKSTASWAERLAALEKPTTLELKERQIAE

- Ka [1]: 2.07e+06 M⁻¹
- Ka (β16β17 Y28A): 180000 M⁻¹
- Ka (β16β17 E19A): 93000 M⁻¹
- Ka (β16β17 F51L): 180000 M⁻¹
- Ka (β16β17 F11L): 16000 M⁻¹
- Ka (β16β17 L29A): 290000 M⁻¹
- Ka (β16β17 F62L): 100000 M⁻¹
B1: α0α1 (erythrocyte α-spectrin residues 2–163), wild type (domain or fragment, human, UniProt P02549 2-163, looked up)
chain: EQFPKETVVESSGPKVLETAEEIQERRQEVLTRYQSFKERVAERGQKLEDSYHLQVFKRDADDLGKWIMEKVNILTDKSYEDPTNIQGKYQKHQSLEAEVQTKSRLMSELEKTREERFTMGHSAHEETKAHIEELRHLWDLLLELTLEKGDQLLRALKFQQY
notes: synthetic gene (GenScript) in a modified pRSETA plasmid; also called α1α0; source: E. coli C41(DE3), purified (Ni2+ agarose, thrombin cleavage, gel filtration)
